In this assay the target is HLA-B*08:01 (Homo sapiens, UniProt P01889). Briefly: MHC binding assay (UV-ligand exchange, beta2m ELISA). To be noted: MHC class I binding score; binding to HLA-B*08:01 ranged by peptide exchange yield (UV-ligand exchange, β2m ELISA). From the text:
Candidate peptides for T cell based therapies according to the present invention were further tested for their MHC binding capacity (affinity). The individual peptide-MHC complexes were produced by UV-ligand exchange, where a UV-sensitive peptide is cleaved upon UV-irradiation and exchanged with the peptide of interest as analyzed. Only peptide candidates that can effectively bind and stabilize the peptide-receptive MHC molecules prevent dissociation of the MHC complexes. To determine the yield of the exchange reaction, an ELISA was performed based on the detection of the light chain (β2m) of stabilized MHC complexes. The assay was performed as generally described in Rodenko et al. (Rodenko et al., 2006).
96 well MAXISorp plates (NUNC) were coated over night with 2 ug/ml streptavidin in PBS at room temperature, washed 4× and blocked for 1 h at 37° C. in 2% BSA containing blocking buffer. Refolded HLA-A*02:01/MLA-001 monomers served as standards, covering the range of 15-500 ng/ml. Peptide-MHC monomers of the UV-exchange reaction were diluted 100-fold in blocking buffer. Samples were incubated for 1 h at 37° C., washed four times, incubated with 2 ug/ml HRP conjugated anti-β2m for 1 h at 37° C., washed again and detected with TMB solution that is stopped with […]. Absorption was measured at 450 nm. Candidate peptides that show a high exchange yield (preferably higher than 50%, most preferred higher than 75%) are generally preferred for a generation and production of antibodies or fragments thereof, and/or T cell receptors or fragments thereof, as they show sufficient avidity to the MHC molecules and prevent dissociation of the MHC complexes.

For “2 (QIMPKAGL; listed as Homo sapiens) [compound 2]”, the Peptide exchange result is “+++ (50% = +++)”.
As to “4 (QVMPKTGL; listed as Homo sapiens) [compound 4]”, the Peptide exchange entry is given as “++ (20% = ++)”.
Consider “6 (NRQKRFVL; listed as Homo sapiens) [compound 6]”, for which the Peptide exchange result was “++ (20% = ++)”.
For “7 (AARLRPAL; listed as Homo sapiens) [compound 7]”, the Peptide exchange entry is given as “++ (20% = ++)”.
Consider “12 (DFYLRSSAF; listed as Homo sapiens) [compound 12]”, for which the Peptide exchange entry is “+++ (50% = +++)”.
Take “14 (ELILKRCL; listed as Homo sapiens) [compound 14]”: the Peptide exchange entry was “+++ (50% = +++)”.
Take “15 (LLKKIEHA; listed as Homo sapiens) [compound 15]”: the Peptide exchange entry is “++ (20% = ++)”.
With “16 (NRKPRTPF; listed as Homo sapiens) [compound 16]”, the Peptide exchange entry is listed as “++ (20% = ++)”.
For “17 (LLILKTVL; listed as Homo sapiens) [compound 17]”, the Peptide exchange entry is reported as “+++ (50% = +++)”.
For the substance “23 (DIKKTNESL; listed as Homo sapiens) [compound 23]”, the Peptide exchange result is “++ (20% = ++)”.
For the substance “24 (DLVLKRCL; listed as Homo sapiens) [compound 24]”, the Peptide exchange entry is “++++ (75% = ++++)”.
As to “26 (DARCKLAEL; listed as Homo sapiens) [compound 26]”, the Peptide exchange result is on record as “++ (20% = ++)”.
Turning to “28 (DPKSRLKSL; listed as Homo sapiens) [compound 28]”, the Peptide exchange result is given as “++ (20% = ++)”.
The value for “30 (DLQKKAQAL; listed as Homo sapiens) [compound 30]” was “++ (20% = ++)”; that for “32 (NPYLKLVL; listed as Homo sapiens) [compound 32]” was “++ (20% = ++)”; that for “39 (DAKSKIEQI; listed as Homo sapiens) [compound 39]” was “++ (20% = ++)”.
Then “43 (DLKKLVDSL; listed as Homo sapiens) [compound 43]”, with “+++ (50% = +++)”; and “44 (HLTNRVLSL; listed as Homo sapiens) [compound 44]”, with “+++ (50% = +++)”.
The value for “46 (DLRNKIIAA; listed as Homo sapiens) [compound 46]” was “+++ (50% = +++)”; that for “50 (TLRLLVAAL; listed as Homo sapiens) [compound 50]” was “+++ (50% = +++)”; that for “51 (ERRVKVSSL; listed as Homo sapiens) [compound 51]” was “+++ (50% = +++)”.
“52 (ELILKHSL; listed as Homo sapiens) [compound 52]”: the Peptide exchange entry is “+++ (50% = +++)”.
In the case of “53 (DLRKLKRQL; listed as Homo sapiens) [compound 53]”, the Peptide exchange result was “++ (20% = ++)”.
“54 (DLSRRDVSL; listed as Homo sapiens) [compound 54]”: the Peptide exchange entry was “++ (20% = ++)”.
The value for “55 (VLLSRRTAL; listed as Homo sapiens) [compound 55]” was “++ (20% = ++)”.
The value for “56 (ILCGSRKMPL; listed as Homo sapiens) [compound 56]” was “++ (20% = ++)”; that for “59 (FDFRGKTKVF; listed as Homo sapiens) [compound 59]” was “++ (20% = ++)”; that for “61 (SIKKELVVL; listed as Homo sapiens) [compound 61]” was “++ (20% = ++)”.
For “64 (FILGREAGAL; listed as Homo sapiens) [compound 64]”, the Peptide exchange entry is “++ (20% = ++)”.
Regarding “65 (NLLMRNVL; listed as Homo sapiens) [compound 65]”, the Peptide exchange result was “++ (20% = ++)”.
“67 (DMNTKRAIHTL; listed as Homo sapiens) [compound 67]”: the Peptide exchange entry is recorded as “++ (20% = ++)”.
As to “69 (ELARQRLL; listed as Homo sapiens) [compound 69]”, the Peptide exchange entry is recorded as “++ (20% = ++)”.
Turning to “70 (RPKGTPPL; listed as Homo sapiens) [compound 70]”, the Peptide exchange result is reported as “++ (20% = ++)”.
On to “72 (LPLAHHIQL; listed as Homo sapiens) [compound 72]”, for which the Peptide exchange entry is recorded as “+++ (50% = +++)”.
Turning to “73 (MFPARGVPL; listed as Homo sapiens) [compound 73]”, the Peptide exchange entry was “++ (20% = ++)”.
Take “77 (LPKLPVPPL; listed as Homo sapiens) [compound 77]”: the Peptide exchange entry is reported as “+++ (50% = +++)”.
As for “79 (GLARIYSF; listed as Homo sapiens) [compound 79]”, the Peptide exchange entry is listed as “++ (20% = ++)”.
In the case of “81 (MYRKEQYL; listed as Homo sapiens) [compound 81]”, the Peptide exchange result is given as “++ (20% = ++)”.
Turning to “84 (YITRQFVQF; listed as Homo sapiens) [compound 84]”, the Peptide exchange result is listed as “++ (20% = ++)”.
Turning to “85 (QKPRKKKL; listed as Homo sapiens) [compound 85]”, the Peptide exchange result is given as “++ (20% = ++)”.
As for “87 (QILQHHVL; listed as Homo sapiens) [compound 87]”, the Peptide exchange entry is “+++ (50% = +++)”.
The value for “88 (MLLCLSLEL; listed as Homo sapiens) [compound 88]” was “++ (20% = ++)”.
As for “90 (TIGLGLHSL; listed as Homo sapiens) [compound 90]”, the Peptide exchange result is recorded as “++ (20% = ++)”.
The value for “92 (TLKAMVQAW; listed as Homo sapiens) [compound 92]” was “+++ (50% = +++)”; that for “93 (LMKEKIQEM; listed as Homo sapiens) [compound 93]” was “+++ (50% = +++)”.
For the substance “94 (DQLLRHVM; listed as Homo sapiens) [compound 94]”, the Peptide exchange result is given as “+++ (50% = +++)”.
Regarding “95 (SRNPRGFFL; listed as Homo sapiens) [compound 95]”, the Peptide exchange result is “++ (20% = ++)”.
As for “96 (RPAGVFEL; listed as Homo sapiens) [compound 96]”, the Peptide exchange entry is “++ (20% = ++)”.
On to “97 (EPVTKAEM; listed as Homo sapiens) [compound 97]”, for which the Peptide exchange result is “+++ (50% = +++)”.
As to “98 (EPVNTNVVL; listed as Homo sapiens) [compound 98]”, the Peptide exchange entry was “++ (20% = ++)”.
Then “99 (NVKIRFLE; listed as Homo sapiens) [compound 99]”, with “++ (20% = ++)”.
For “100 (VLLMGPLHL; listed as Homo sapiens) [compound 100]”, the Peptide exchange result is reported as “++ (20% = ++)”.
For “101 (FAFEKLIQF; listed as Homo sapiens) [compound 101]”, the Peptide exchange result is “+++ (50% = +++)”.
Turning to “102 (IMKKIRESY; listed as Homo sapiens) [compound 102]”, the Peptide exchange result is on record as “+++ (50% = +++)”.
Consider “103 (IANLRVKNI; listed as Homo sapiens) [compound 103]”, for which the Peptide exchange entry is “+++ (50% = +++)”.
On to “104 (FAFGEPREL; listed as Homo sapiens) [compound 104]”, for which the Peptide exchange entry was “++ (20% = ++)”.
For “105 (APLKMLALV; listed as Homo sapiens) [compound 105]”, the Peptide exchange entry was “++ (20% = ++)”.
For “106 (HLHLLETSI; listed as Homo sapiens) [compound 106]”, the Peptide exchange entry is “++ (20% = ++)”.
Consider “107 (LPKGLKDWQA; listed as Homo sapiens) [compound 107]”, for which the Peptide exchange result is on record as “++ (20% = ++)”.
As for “108 (RSYYHPTNL; listed as Homo sapiens) [compound 108]”, the Peptide exchange result is on record as “++ (20% = ++)”.
Turning to “109 (IPASHPVLTL; listed as Homo sapiens) [compound 109]”, the Peptide exchange entry was “++ (20% = ++)”.
On to “110 (DAMTKHTL; listed as Homo sapiens) [compound 110]”, for which the Peptide exchange result is on record as “+++ (50% = +++)”.
In the case of “111 (GAGLRITAPL; listed as Homo sapiens) [compound 111]”, the Peptide exchange entry is on record as “++ (20% = ++)”.
“112 (NALDPLSAL; listed as Homo sapiens) [compound 112]”: the Peptide exchange entry is recorded as “++ (20% = ++)”.
Then “113 (MEKGLASL; listed as Homo sapiens) [compound 113]”, with “++ (20% = ++)”; and “114 (PVKPKFYL; listed as Homo sapiens) [compound 114]”, with “++ (20% = ++)”.
On to “115 (MRILKRFLAC; listed as Homo sapiens) [compound 115]”, for which the Peptide exchange result is listed as “++ (20% = ++)”.
Take “116 (FTQNPRVQL; listed as Homo sapiens) [compound 116]”: the Peptide exchange entry was “++ (20% = ++)”.
For the substance “117 (VGPNGFKSL; listed as Homo sapiens) [compound 117]”, the Peptide exchange entry is reported as “++ (20% = ++)”.
